According to the DeepSol protein solubility set:

Test: soluble on expression in E. coli; label from the status in PepcDB or PDB records

Sequence	soluble on expression in E. coli
QINPAARKELVIENDIETMHPVFKGFKDKLVPHLRMAAQGATLTGVNVPIGDKVFRWNLSPIRVDGDISGIIVQGQDITTLIEAEKQSNLARREAEKSAQARADFLAKMSHEIRTPINGILGVAQLLKDSVEAEEQKNQIDVLRHSGEHLLAVLNDILDFSKIEQGKFNIQKHPFSFADTMRTLENIYRPICENKGVELVIENQLDGNVEIFTDQVRLNQILFNLVSNAVKFTPSGCVRLHAELEQFYGADNSVLVVEISDTGIGIESDKLDEMFEPFVQEEATTTR	not soluble
MNRISTSSVNSSFNYTAPTEEAQNRFASAPDNSPLVVTTTSIAQASEGLQRPGATLSMQAQRLRQLMGSPSEQCRRDTMLAKAFDAQRLNINTQAGSSNSPHLNALNTLQQRHFKPAAGGLEIPVTSNSLLGGGRQVYQIGSSSRELSHRPVNDQDRAPFRALERLHAELFRGGPIEFVPRGSNVLASNVRDVDMDEFDVINSKDGCQGIGTTGLGPCIAVCARGMDREGLPVLGVYHHSGIGSPEDTMATLDQAMRDKGALQIKYSLVGGMIMPKEEEAGSYDDEQSFLALKGSYSIEGARLHVSEGEEDVHTGEDNSVNVLLMPDRVLYGRDTLYC	not soluble
MKSVTSAQRPYQEVGAMIHDLIIKTPYNPGERLPPEREIAEMLDVTRTVVREALIMLEIKGLVEVRRGAGIYVLDSSGSHNTDSPDANVCNDAGPFELLQARQLLESNIAEFAALQATREDIVKMRQALQLEERELASSAPGSSESGDMQFHLAIAEATHNSMLVELFRQSWQWRENNPMWIQLHSHLDDSLYRKEWLGDHKQILAALIKKDARAAKLAMWQHLENVKQRLLEFSNVDDIYFDGYLFDSWPLDKVDA	not soluble
MDKVKAARSLIQEALAQSQNPCFTCSFQAEDVVVLHLLLKERPEIPVLFLDTGYHFPEVYAYRDELQKRLGFRLVNLTPALSREEQERLYGKLYETDPGRCCALRKVEPLFAALEAHDTWFTGLRREQSPTRRNLEPQEEARLPSGHRLKKVNPLYDWTLKEVFAYLAVEDLPYLPLYDQGYLSIGCAPCTAKPLDPSDPRSGRWAGKGKLECGIHLHGKEG	soluble
MVSTHSSQYITDFTPVPAEPGKSPLALLAKTCETIGLPEGSSKKNGASSSSSPQGKKDEKNHILHHQHHQQQQQSKQKSSPRSTPQSKEPTLTFPGLPKPSFPMGMPGMMQGFPFFNPMMTAYGCFPGAFPMSQGFMGAQRLPCPFAMMRQPCANPACVQCPSSSSNAAKNGQMTAEMMSQFAAHPLFSMYAGMMPGVPTSSYQALLAASAAASTSAGPTDYSNVASTSKASPQPKPTAQKSQKSAKFPCNWVDSDVPCGKVFDEENELASHVKKMHAPSPSSSASSEQSTSTGKASRSSTTTPHRFNPYGKPVAPAPPTMQQMGMNMAMNPLVLPFSLQAMYSNRLMSTVAHQ	not soluble
MPNLSNRLTLLREKQGWSKAETARRLGLKAPSTYGNWEYGIREPDLDMVTQIATLYDVSVDYLLGQQSIPTYAPSELQGEKDIAKRMIKISEDLRYEDDLNLNGKPLNDSAAHFLADSIDFLYEQAKKLND	not soluble
MGSDKIHHHHHHMTTATQSSAPGVNVDQAEVEKFSALAARWWDPESEFKPLHAINPLRLGWIQETAGSLSGKRVLDMGCGGGILSESMAVAGAQVTGIDLAEKSLKIARLHGLESGVKVDYRAVPVEELAAEQPGQYDVVTCMEMLEHVPDPASVVRACAALAKPGGWVFFSTLNRNPKSFLFAIVGAEYVLRLLPRGTHSYDSFIKPSELATSARQAGLEPTGMRGMEYNPITQVYSLSANTSVNYLMSTRK	not soluble
MGSDKIHHHHHHMSNRHDADTPARLSSGIDGIDDILGGGLTPHRMYLVEGAPGTGKTTLALQFLLKGVEEGQGGLYITLSETRPELIAVAESHGWDISRFTILELLSDEGLDPQYEQTVLHPAEVELGETVRNVIQHVDELKPARIVLDSLSELRLLSQNPLRYRRQILALKRYFATRECTVLLLDDNSSDPGDVQLHSIAHGVISLDNLVHDYGGNRRRARVAKMRGIKFREGYHDFTLDTGGIHVYPRLVAAEHHADFSTEVVSTGTAGLDALLGGGLIPGTNALMIGPSGVGKTTTVVSCLIAALERGERCVYYVFDETLTTLMTRCATLGIYLAPHVESGLLTLRQIDPAEISPGEFASDVRRSVEKKGVRYVAIDSLNAYLQAMPGERYLLLQMHELLGYLNQQGIVTMLVLGQHGIIGEVQNDIDISYLSDVVVLFRYFEHHGEVLTAITAVKSRANAHERSIRQFRLGVNGVEVGDALRDFEGVLSGLPAYRGSTALLGATNRVIETPGK	not soluble
MAHHHHHHMHPVPQAPYLSSPSPLFPNRGWCWQRPLRIFCPFFSAPLRAASSRRCHRPFLSIRFKKRCCNNPLLLGVVEAILPEPHSPAIPPVILRVFTPPS	not soluble
SLAPTTEIEPIEAQSLKKLSLKSLKRSLELFSPVHGQFPPPDPEAKQIRLSHKMKVAFGGVEPVVSQPPRQPDRINEQPGPSNALSLAAPEGSKSTQKGATESAIVVGPTLLRPILPKGLNYTGSSGKSTTIIPANVSSYQRNLSTAALMERIPSRWPRPEWHAPWKNYRVIQGHLGWVRSVAFDPSNEWFCTGSADRTIKIWDVATGVLKLTLTGHIEQVRGLAVSNRHTYMFSAGDDKQVKCWDLEQNKVIRSYHGHLSGVYCLALHPTLDVLLTGGRDSVCRVWDIRTKMQIFALSGHDNTVCSVFTRPTDPQVVTGSHDTTIKFWDLRYGKTMSTLTHHKKSVRAMTLHPKENAFASASADNTKKFSLPKGEFCHNMLSQQKTIINAMAVNEDGVMVTGGDNGSIWFWDWKSGHSFQQSETIVQPGSLESEAGIYAACYDNTGSRLVTCEADKTIKMWKEDENATPETHPINFKPPKEIRRF	soluble
MGSDKIHHHHHHMFIKLNKGLDLPISGEPEQCVYAATAVRHIAVAGVDYIDLKPTMKVTEGDRVRLGQPLFEYKKLPGVVFTAPGAGRIVAINRGTRRILLSVVLQLDEQEDEETFIKYAPDELSNLADEQVKENLLISGLWTTLRTRPYSKVPDPATRPAAIFITAIDSNPLAADPVPIITAEMESFNHGLRILSRLTDGPLWVCQSPQAKLSLPEDLPQLQQARFAGPHPAGLPGTHIHFLQPVSAYKTVWYLNYQEVIAIGKLFVTGRLWTERIVALGGPGVKKPRLLRTRLGASLEELLAGELVESMDKRVISGSVWSGRKAVDELAFLGRHHLQVTVIGEKSEREFLGWLNPGGNKYSKLNVLFSSFFRKKRKFEFTASQQGSPRAMIPIDTFEEVMPLDILPAQLLRALLVMDTDMAQKLGCLELDEEDLALCSFICVGKHDYGVILRENLRQIEKEG	not soluble
SLLVENLKQLQERVAVSDGRAKADLVIKNGRIINVFSGEIMDGDIAIKNGYIAGIGNFPDAEKIIDAAGAFIAPGFIDAHVHVESAMVTPAEFARVLLPNGVTTIVTDPHEIANVAGEKGIEFMLEDAKGVPIDMFVMLPSSVPATEGEHNGETLHAEKLHPLYRHEKVIGLAEVMDFPSVAKGSSDILTKIIDAKKEGGRIDGHGAGLTSADLNNYLAVGIRTDHESTTAKEATDRLRAGMFVMLREGTVGRDLLQTIPAVSEKNSHRFCFCTDDKLINDLITEGSINFNIRLAIKNGIDPITAIQMATINAANCHNLPYLGAVAAGYQADIVFLTDIETVEISKVLKNGEVVVDNGVRHEAAFKQQAAVPFVSPPINHHVSLQDLALPLTKETCYVIGMQPNSLFTEKRIEQVAIQDGKFVPTVENDLLKMAVVERHHDTGCVGLGIVKGFGLTEGAIATTVAHDSHNIVAVGISDEAMKAAIDHITQTGGGIAVVNGAGQVLHDLALPIAGLLSDKSYEEVENDLAGLLNAFKQISTADGFDPFLTLSFLTLPVIPELKLTDQGLFDFATFQIISNEVN	soluble
MGSDKIHHHHHHMSEESIIVVGGGIAGLTGAALLSKEGYQVTLVEAHSQLGGCAGTFKRGSYTFDVGATQVAGLERGGIHHRLFNYLDIPLPDAKILDPGCSVTLGDGSRPINLWHDPLRWQKERQEQFPGSEIFWSLCSKIHESNWEFVERDPILPVRNFWDLSQLIRAIRPSNLLTGFLSKLTIADLLTITGCHKDRRLRSFLDLQLKLYSQEPASRTAALYGATVLQMAQSPRGLWHLHGSMQILSDLLKDSFLRDGGSLLIGHRVTKIIRKENSNVFDVKVLDRRKNLLQMKASDIVFSLPPQSLLDLIPIDGGLSTTYRESIKKLPKPSGAVVFYGALRRVDLPVDCPGHIQVFDEHFGSLFISISLENDQRAPIGMATLIASVFVDIDQWSNLDSQAYTRKKSVVSKQIRAILDHKFDLLETSWDHQELSTPRSFERWTGRPSGIVGGLGQHPDQFGPFGLSSRTPLKGLWLCGDSIYPGEGTAGVSQSALMVVRQLLESKGRHLNIPVFN	not soluble
MSLKLSAREWKDFSLEELFTVRGTKTTPLIILRKNNKKREKQLPYVTTKSTYNGIDDFFSGFTEEGNVITIDSATDGYVFYQLNNFSASDHVEKLIPKFKLNKYIALFLVNCIKKATKCKYGYGYKFSQTRIKRQKIMLPASNNQPDFQFMERYIKEKHFNLKSRIKEKQNHEINDWRELDDVEWTPFSTSEVFNNIQRGKRLTKSNQIKGLTPYISSSGINNGLDNFISNNEKIREFDNCLTIANSGSVGSAFYHTYRFIASDHVTHLKNNNLNKFSYLFIANMLRRLEGKYSFNRGINDFRIKRERILLPTKNNRPEYEFMEQYMKRKENEILDRLEGHHHHHH	not soluble
MAAKLQKWRNLAGRLDLMNRSGAVSTRRFLHEGPDTVEELLERHLAKKEKPIIDHDEAEFLNRRRLTSTRREALSLYRDILRATRFFTWIDSRGNLWRDVLRENARKEFEAARFETDPEVITRLLIGGSDAVSSALDKLAEKQREMIEKQRRGDQR	soluble
MSKMTRHDAQLYELKKKIEELKKIRGRGTELISLYIPAGYDLSKVMQQLREEYSTAQNIKSKTTRKNVLGALERAMQHLKLYKQTPENGLALFVGNVSEIEGNTDIRLWAIIPPEPLNVRLYRCDQTFVTEPLEEMLRVKDAYGLITVEKNEATIGLLRGKRIELLDELTSNVPGKTRAGGQSARRYERIREQETHEFMKRIGEHANRAFLPLLEKGELKGIIIGGPGPTKEEFVEGEYLHHELKKKILGVVDISYHGEYGLRELVEKASDILRDHEVIREKKLVNEFLKHVVKDTGLATYGEREVRRALEIGAVDVLLISEGYNKVRVRVKCNHCGWEELKTMSEEEYEVYRKKITKCPKCGSQNLTIEKWDVAEELIKMAEEAGSDVEIISLDTEEGQQFYRAFGGLGAILRFKI	soluble
MSLEYAKSLFERHLDIASKFRPKNPYLKTAYMNVLLSLTQTICQSPQELSNDDLSDAGAALAYLREAGFELDWLEKKLNEVKEKKKKEEACLAEIQDMDEHVKPLKKKYLDLEAQIDKKKAELLAARAPLSLNDDNVVSMFCDSAETQQWFDKNAPDWGFTEMISLTELHAEEGLLRNGELTVVAKVEVLEVVGKLDVSEESSPVIETIDVNGFQVLPSEGHHHHHH	soluble
MTETYVLAESPEFYQDNVTDYTGQISSSDITNIQAAIDDVKASEQKVIFVVFLSSFDGVDPETWTQQALQANGGGNVLIYALAPEERQYGIQGGTQWTDAELDAANNAAFQALSQEDWAGSALALAESVGSSSSSSSGSSSLEHHHHHH	soluble
MSLSIPADIASLISDKYKSAFDNGNLKFIQTETTKTKDPKTSMPYLISHMPSLIEKPERGQTPEGEDPLGKPEEELTVIPEFGGADNKAYKLLLNKFPVIPGHTLLVTNEYQHQTDALTPTDLLTAYKLLCALDNEESDKRHMVFYNSGPASGSSLDHKHLQILQMPEKFVTFQDRLCNGKEHFLPTFNTEPLQDAKVSFAHFVLPMPESEETVDEDLLAMCYISILQRALTFFQDWLNENPELKKSYNLMLTKEWICVVPRSKAFSDEMKIGFNSTGYCGMILTKNDEVFSKITEKPELINDILLECGFPNTSGQKPNEYNYEGHHHHHH	soluble
